Columns and labels:
EaBglA = target: T1, EaBglA (Exiguobacterium antarcticum, UniProt A0ABF7PFW8); test: colorimetric release of 4-nitrophenol at […] nm; format: biochemical; details: 0.5 mM pNPG, 20 nM enzyme, 40 mM sodium phosphate pH 7.0, 30 °C, 10 min; tetramer
T1 construct: gene bglA

[1] = target: GH1 β-glucosidase from Exiguobacterium antarcticum B7 (Exiguobacterium antarcticum B7)
[2] = target: GH1 β-glucosidase from Exiguobacterium antarcticum B7 (Exiguobacterium antarcticum B7); test: AUC; sedimentation velocity, 35,000 rpm, 20 °C, 0.2, 0.4 and 1 mg/mL in 20 mM sodium phosphate, 150 mM NaCl, pH 7.4
[3] = target: GH1 β-glucosidase from Exiguobacterium antarcticum B7 (Exiguobacterium antarcticum B7); test: SAXS; 1 and 2 mg/mL in 20 mM sodium phosphate, 150 mM NaCl, pH 7.4, 20 °C; experimental curve and ab initio model compared with the crystallographic tetramer
[4] = target: GH1 β-glucosidase from Exiguobacterium antarcticum B7 (Exiguobacterium antarcticum B7); test: crystal structure; two crystal forms, P2(1) (0.1 M TRIS pH 8.5, 2% PEG400, 1.45 M lithium sulfate) and C222(1) (0.1 M CAPS pH 10.5, 0.2 M lithium sulfate, 2 M ammonium sulfate, in situ proteolysis with trypsin); 18 °C, protein at 15 mg/mL
[5] = target: GH1 β-glucosidase from Exiguobacterium antarcticum B7 (Exiguobacterium antarcticum B7); test: SEC; Superdex 75 16/60, 20 mM sodium phosphate, 150 mM NaCl, pH 7.5, 0.5 mL/min; two peaks (tetramers and monomers); samples at 4 mg/mL

T1 sequence (A0ABF7PFW8 entry or part of it): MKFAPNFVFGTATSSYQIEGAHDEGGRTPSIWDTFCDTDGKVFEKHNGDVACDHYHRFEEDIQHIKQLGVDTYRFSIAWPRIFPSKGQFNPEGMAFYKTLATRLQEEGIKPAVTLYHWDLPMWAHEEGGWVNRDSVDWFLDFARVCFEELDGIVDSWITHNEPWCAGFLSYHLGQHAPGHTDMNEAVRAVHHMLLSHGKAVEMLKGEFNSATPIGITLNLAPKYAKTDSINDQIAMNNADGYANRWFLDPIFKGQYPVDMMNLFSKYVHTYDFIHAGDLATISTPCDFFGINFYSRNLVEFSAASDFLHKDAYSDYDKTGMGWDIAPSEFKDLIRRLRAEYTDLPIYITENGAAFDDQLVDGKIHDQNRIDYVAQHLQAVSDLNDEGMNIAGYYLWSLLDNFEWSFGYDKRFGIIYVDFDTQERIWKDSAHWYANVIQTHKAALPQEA

Row | Compound | relative activity (%) (EaBglA) | relative enzyme activity on pNPG (30 °C, pH 7.0, 20 nM enzyme) of the monomer fraction against the tetramer fraction [1] | stoichiometry N [2] | stoichiometry N [3] | stoichiometry N [4] | stoichiometry N [5]
1 | O=[N+]([O-])c1ccc(O[C@@H]2O[C@H](CO)[C@@H](O)[C@H](O)[C@H]2O)cc1 [4-nitrophenyl β-D-glucopyranoside] | Enzyme activity was measured using the colorimetric substrate 4-nitrophenyl β-D-glucopyranoside (pNPG |  |  |  |  | 
2 | GH1 β-glucosidase from Exiguobacterium antarcticum B7 (enzyme) |  | 10 fold | 4 | 4 | 4 | 4

Source: publication PMC4815018, “Oligomerization as a strategy for cold adaptation: Structure and dynamics of the GH1 β-glucosidase from Exiguobacterium antarcticum B7” (Scientific Reports, 2016)
